According to patent US20240043504A1:

Key:
[1] = molecular target: SARS-CoV-2 spike protein on VSV-SARS-CoV-2-S pseudovirus (SARS-CoV-2) (UniProt P0DTC2); assay: cell-based or functional assay
[2] = molecular target: human FcγR3a 176Val allotype receptor (human) (UniProt P08637); assay: cell-based or functional assay
[3] = molecular target: full-length SARS-CoV-2 spike protein (amino acids M1-T1273 of accession number YP_009724390.1) on Ju (SARS-CoV-2) (UniProt P0DTC2); assay: cell-based or functional assay
[4] = molecular target: SARS-CoV-2 spike protein (S-wt, Wuhan-Hu-1, NCBI Accession Number MN908947.3) on VSV pseudoparticles (SARS-CoV-2) (UniProt P0DTC2); assay: cell-based or functional assay
[5] = molecular target: SARS-CoV-2 spike protein, Wuhan-Hu-1 sequence (S-wt), on VSV pseudoparticles (SARS-CoV-2) (UniProt P0DTC2); assay: cell-based or functional assay
[6] = molecular target: Bt-MERS.hFc (mAb2664-L2) (MERS-CoV) (UniProt K9N5Q8); assay: Luminex bead binding, supernatant
[7] = molecular target: MERS.hFc (mAb2664-L1) (MERS-CoV) (UniProt K9N5Q8); assay: Luminex bead binding, supernatant
[8] = molecular target: MERS.mFc (mAb2663-L1) (MERS-CoV) (UniProt K9N5Q8); assay: Luminex bead binding, supernatant
[9] = molecular target: MOD10-SARS-CoV-2 Spike Protein (RBD)(R319-F541).mmH (SARS-CoV-2); assay: Luminex beads, supernatant
[10] = molecular target: MOD11-SARS-CoV-2 Spike Protein (RBD)(R319-F541).mmH (SARS-CoV-2); assay: Luminex beads, supernatant
[11] = molecular target: MOD12-SARS-CoV-2 Spike Protein (RBD)(R319-F541).mmH (SARS-CoV-2); assay: Luminex beads, supernatant
[12] = molecular target: MOD14-SARS-CoV-2 Spike Protein (RBD)(R319-F541).mmH (SARS-CoV-2); assay: Luminex beads, supernatant
[13] = molecular target: MOD15-SARS-CoV-2 Spike Protein (RBD)(R319-F541).mmH (SARS-CoV-2); assay: Luminex beads, supernatant
[14] = molecular target: MOD2-SARS-CoV-2 Spike Protein (RBD)(R319-F541).mmH (SARS-CoV-2); assay: Luminex beads, supernatant
[15] = molecular target: MOD3-SARS-CoV-2 Spike Protein (RBD)(R319-F541).mmH (SARS-CoV-2); assay: Luminex beads, supernatant
[16] = molecular target: MOD4-SARS-CoV-2 Spike Protein (RBD)(R319-F541).mmH (SARS-CoV-2); assay: Luminex beads, supernatant
[17] = molecular target: MOD5-SARS-CoV-2 Spike Protein (RBD)(R319-F541).mmH (SARS-CoV-2); assay: Luminex beads, supernatant
[18] = molecular target: MOD6-SARS-CoV-2 Spike Protein (RBD)(R319-F541).mmH (SARS-CoV-2); assay: Luminex beads, supernatant
[19] = molecular target: MOD7-SARS-CoV-2 Spike Protein (RBD)(R319-F541).mmH (SARS-CoV-2); assay: Luminex beads, supernatant
[20] = molecular target: MOD8-SARS-CoV-2 Spike Protein (RBD)(R319-F541).mmH (SARS-CoV-2); assay: Luminex beads, supernatant
[21] = molecular target: MOD9-SARS-CoV-2 Spike Protein (RBD)(R319-F541).mmH (SARS-CoV-2); assay: Luminex beads, supernatant
[22] = molecular target: MOD1-SARS-CoV-2 Spike Protein (RBD)(R319-F541).mmH (SARS-CoV-2); assay: Luminex beads, supernatant
[23] = molecular target: MOD13-SARS-CoV-2 Spike Protein (RBD)(R319-F541).mmH (SARS-CoV-2); assay: Luminex beads, supernatant

Sequence of human FcγR3a 176Val allotype receptor (human) (P08637 17-254 F176V): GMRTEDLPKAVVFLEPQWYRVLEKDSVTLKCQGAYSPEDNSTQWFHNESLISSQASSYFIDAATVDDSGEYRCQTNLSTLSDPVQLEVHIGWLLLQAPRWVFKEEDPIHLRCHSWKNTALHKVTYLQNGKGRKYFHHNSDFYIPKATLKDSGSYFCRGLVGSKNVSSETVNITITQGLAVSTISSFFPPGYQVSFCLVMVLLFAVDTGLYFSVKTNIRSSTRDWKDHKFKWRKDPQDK

| Substance | Neutralization (1:100 dilution) [1] [%] | ADCC (Activity (%) (of positive control)) [2] | ADCC Mean RLU (surrogate reporter assay, spike-expressing target cells) [2] [RLU] | IC50 (M), neutralization [4] [M] | Neutralization (1:4 dilution) [1] [%] | Neutralization (1:20 dilution) [1] [%] | Binding signal (MFI) [6] [MFI] | Binding signal (MFI) [7] [MFI] | Binding signal (MFI) [8] [MFI] | Binding signal (MFI) [9] [MFI] | Binding signal (MFI) [10] [MFI] | Binding signal (MFI) [11] [MFI] | Binding signal (MFI) [12] [MFI] | Binding signal (MFI) [13] [MFI] | Binding signal (MFI) [14] [MFI] | Binding signal (MFI) [15] [MFI] | Binding signal (MFI) [16] [MFI] | Binding signal (MFI) [17] [MFI] | Binding signal (MFI) [18] [MFI] | Binding signal (MFI) [19] [MFI] | also measured |
| --- | --- | --- | --- | --- | --- | --- | --- | --- | --- | --- | --- | --- | --- | --- | --- | --- | --- | --- | --- | --- | --- |
| mAb10933 (antibody) | 88.4 | 68.5 | 9740 | – | – | – | – | – | – | – | – | – | – | – | – | – | – | – | – | – | – |
| IgG1 Isotype Control (antibody) | – | – | – | – | – | – | – | – | – | – | – | – | – | – | – | – | – | – | – | – | ADCP Max (% ADCP), Jurkat/hCD20/SARS-CoV-2 Spike cells [3]: 10.4% |
| mAb10987 (antibody) | 94.6 | 29.4 | 12000 | 4.06e-11 | 99.3 | 97.7 | 172 | 235 | 196 | – | – | – | – | – | – | – | – | – | – | – | Relative neutralization (5 µg/ml, Vero cells) [5]: 100% |
| mAb10989 (antibody) | 98.2 | 21.5 | 10200 | 7.23e-12 | 100 | 99.8 | 186 | 206 | 161 | 15500 | 16800 | 15100 | 18100 | 15900 | 16700 | 18300 | 15800 | 3370 | 19600 | 15200 | Binding signal (MFI) [20]: 6140 MFI; Binding signal (MFI) [21]: 17800 MFI |
| mAb10934 (antibody) | – | – | 11700 | – | – | – | – | – | – | 30400 | 30700 | 32900 | 28600 | 27800 | 27700 | 25100 | 31700 | 6650 | 30800 | 29900 | Binding signal (MFI) [22]: 81 MFI; Binding signal (MFI) [23]: 30500 MFI; Binding signal (MFI) [20]: 6410 MFI; Binding signal (MFI) [21]: 31300 MFI |
